Data on 12 molecules can be found in article PMC10820826 (The Journal of Biological Chemistry, 2023).

Like-named read-outs stand apart in the source and are kept apart here.

Conditions in all cases: both partners purified
In test [1] the target is T1, Munc18-1-His (rat, UniProt P61765 1-594).
T1 construct: Munc18-1 (STXBP1); also called Munc18a; STXBP1; source: E. coli Rosetta BL21 (DE3), purified to homogeneity as described by Hu et al

The target in test [2] is T2, Munc18-1 + Sx1a (rat, UniProt P61765 1-594; P32851 1-261).
T2 construct: Munc18-1 (STXBP1), as m1; also called Munc18-1 in the presence of Sx1a; source: mixed from the purified E. coli proteins m1 and m32
Nature of the test: pull-down; GST-Mint1 MID as bait, Munc18-1 in the presence of Sx1a; Coomassie-stained gel.

Test [3] has as its target T1, Munc18-1-His. This is another data set of the same source.
Another test deals with T3, Mint1 PTB + TJAP1 (9-22) (human, UniProt Q02410 448-623).
T3 construct: human Mint1 PTB domain, residues 448-623, as m35; human tight junction-associated protein 1 residues 9-22, as m37; source: mixed from purified m35 and the synthetic peptide m37
Put plainly: ITC; as a5, competition experiment with the other peptide (APP 750-769 or TJAP1 9-22) present with Mint1 PTB in the cell. (In general: In ITC the heat of successive injections is recorded.)

The target of test [4] is T4, Mint1 PTB domain (residues 448-623) (human, UniProt Q02410 448-623).
T4 construct: human Mint1 PTB domain, residues 448-623; pGEX6P-2; source: E. coli Rosetta BL21 (DE3), purified (glutathione-Sepharose, Prescission protease, gel filtration)
T4 sequence (looked up): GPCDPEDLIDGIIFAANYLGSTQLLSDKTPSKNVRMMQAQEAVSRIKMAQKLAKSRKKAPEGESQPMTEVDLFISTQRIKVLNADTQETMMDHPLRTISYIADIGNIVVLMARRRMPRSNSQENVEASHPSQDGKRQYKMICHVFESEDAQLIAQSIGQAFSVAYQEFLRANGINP
Nature of the test: ITC; 25 °C, 50 mM Hepes, 200 mM NaCl, 0.5 mM TCEP, 5% glycerol; 1 mM peptide titrated into 50 μM Mint1 PTB domain; 1:1 binding model.

Test [5] concerns the target T5, Mint1 PTB + APP (750-769) (human, UniProt Q02410 448-623).
T5 construct: human Mint1 PTB domain, residues 448-623, as m35; human amyloid precursor protein residues 750-769, as m36; source: mixed from purified m35 and the synthetic peptide m36
Nature of the test: ITC; as a5, competition experiment with the other peptide (APP 750-769 or TJAP1 9-22) present with Mint1 PTB in the cell.

Test [6] addresses T2, Munc18-1 + Sx1a.
Test [7] addresses T1, Munc18-1-His. The source holds these as a separate data set.

Broadly, the stoichiometry N is a count of units in the complex or per binding partner.

T1 sequence (P61765 whole entry): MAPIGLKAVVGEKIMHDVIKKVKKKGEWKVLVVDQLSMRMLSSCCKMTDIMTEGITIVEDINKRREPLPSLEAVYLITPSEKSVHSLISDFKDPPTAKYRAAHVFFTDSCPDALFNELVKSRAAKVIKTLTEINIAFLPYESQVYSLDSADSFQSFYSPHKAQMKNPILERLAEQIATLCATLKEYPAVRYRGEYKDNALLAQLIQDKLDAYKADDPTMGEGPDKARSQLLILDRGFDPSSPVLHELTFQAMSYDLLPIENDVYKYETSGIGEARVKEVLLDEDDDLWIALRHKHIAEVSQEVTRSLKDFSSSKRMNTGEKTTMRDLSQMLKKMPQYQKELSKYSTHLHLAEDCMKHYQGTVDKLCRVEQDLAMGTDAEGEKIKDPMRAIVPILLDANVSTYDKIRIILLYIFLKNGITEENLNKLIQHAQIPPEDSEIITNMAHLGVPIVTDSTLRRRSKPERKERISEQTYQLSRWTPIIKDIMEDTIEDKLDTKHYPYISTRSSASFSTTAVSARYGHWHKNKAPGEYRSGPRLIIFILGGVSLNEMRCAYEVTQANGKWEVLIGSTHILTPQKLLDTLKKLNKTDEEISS
T2 sequence (P61765 whole entry, chain 1 of 2): as the sequence (P61765 whole entry) above
T2 sequence (P32851 1-261, chain 2 of 2): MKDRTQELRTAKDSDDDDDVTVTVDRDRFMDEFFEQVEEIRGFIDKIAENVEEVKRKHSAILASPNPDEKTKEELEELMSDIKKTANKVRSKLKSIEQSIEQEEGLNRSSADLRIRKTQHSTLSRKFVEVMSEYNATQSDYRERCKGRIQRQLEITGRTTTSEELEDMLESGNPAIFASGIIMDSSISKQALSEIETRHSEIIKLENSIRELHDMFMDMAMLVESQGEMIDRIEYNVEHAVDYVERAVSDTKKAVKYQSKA

B1: Mint1_7 peptide (261-280) (peptide)
peptide: MDSYEQEEDIDQIVAEVKQS
notes: source: synthetic peptide, bought: Genscript
On to B1, for which, in the test with Munc18-1-His [1], the Kd is 19.1 µM, the dH was -1.78 kcal/mol and the “stoichiometry N” value was found to be 1.

B2: Mint1_4 peptide (263-282) (peptide)
peptide: SYEQEEDIDQIVAEVKQSMS
notes: as for B1
Consider B2, for which, in the test with Munc18-1-His [1], the Kd is 12.9 µM, the dH was -2.3 kcal/mol and the “stoichiometry N” value was 1.3.

B3: Mint1_1c peptide (266-282) (peptide)
peptide: QEEDIDQIVAEVKQSMS
notes: as for B1
Consider B3, for which, in the test with Munc18-1-His [1], the Kd was found to be 23.1 µM, the dH was -1.2 kcal/mol and the “stoichiometry N” value turned out to be 1.

B4: GST-Mint1 (226-314) (MID) (domain or fragment, human, UniProt Q02410 226-314, looked up)
chain: YRQEALGARLHHYDERSDGESDSPEKEAEFAPYPRMDSYEQEEDIDQIVAEVKQSMSSQSLDKAAEDMPEAEQDLERPPTPAGGRPDSP
notes: human Mint1 (X11, APBA1) residues 226-314, the MID by the methods; it could also be 222-314; also called GST-Mint1 MID; source: E. coli Rosetta BL21 (DE3), purified (glutathione-Sepharose, Superdex 75)
On to B4, for which the binding result with Munc18-1 + Sx1a [2] and in the test with Munc18-1-His [3] was “binds” in each case.

B5: APP (750-769) peptide (peptide)
peptide: SKMQQNGYENPTYKFFEQMQ
notes: human amyloid precursor protein residues 750-769; also called APP NPxY peptide; source: synthetic peptide (solid phase synthesis in-house, reverse-phase HPLC)
Turning to B5, in the test with Mint1 PTB + TJAP1 (9-22), the Kd was 0.58 µM, the dH is -11.8 kcal/mol and the “stoichiometry N” value was determined as 1. In addition, in test [4], the Kd was determined as 0.31 µM, the dH was -15.6 kcal/mol and the “stoichiometry N” value is 1.

B6: Mint1_6 peptide (267-282) (peptide)
peptide: EEDIDQIVAEVKQSMS
notes: as for B1
Take B6: in the test with Munc18-1-His [1], the Kd was 4 µM, the dH was -1.29 kcal/mol and the “stoichiometry N” value was determined as 1.2.

B7: Mint1_3 peptide (257-286 phosphomimic) (peptide)
peptide: PYPRMDEEEQEEDIDQIVAEVKQEMEEQEL
notes: human Mint1 residues 257-286 with phosphomimetic Glu; source: synthetic peptide, bought: Genscript
As for B7, in the test with Munc18-1-His [1], the Kd was found to be 14 µM, the dH was -6.5 kcal/mol and the “stoichiometry N” value was 1.1.

B8: TJAP1 (9-22) peptide (peptide)
peptide: KPYRKAPPEHRELR
notes: human tight junction-associated protein 1 residues 9-22; also called TJAP1 peptide; PILT; source: synthetic peptide (solid phase synthesis in-house, reverse-phase HPLC)
Regarding B8, in test [5], the Kd was 29.4 µM, the dH is -7.1 kcal/mol and the “stoichiometry N” value worked out at 1. In addition, in test [4], the Kd came out at 20.9 µM, the dH is -8.9 kcal/mol and the “stoichiometry N” value is 1.

B9: Mint1_2 peptide (257-286) (peptide)
peptide: PYPRMDSYEQEEDIDQIVAEVKQSMSSQSL
notes: human Mint1 residues 257-286; source: synthetic peptide, bought: Genscript
In the case of B9, in the test with Munc18-1-His [1], the Kd worked out at 26 µM, the dH was -4.21 kcal/mol and the “stoichiometry N” value came to 1.3.

B10: Mint1_5 peptide (265-282) (peptide)
peptide: EQEEDIDQIVAEVKQSMS
notes: as for B1
As to B10, in the test with Munc18-1-His [1], the Kd came to 5.6 µM, the dH is -3.48 kcal/mol and the “stoichiometry N” value came out at 1.3.

B11: GST-Mint1 MID (residues 222-314) (domain or fragment)
chain: EAAAYRQEALGARLHHYDERSDGESDSPEKEAEFAPYPRMDSYEQEEDIDQIVAEVKQSMSSQSLDKAAEDMPEAEQDLERPPTPAGGRPDSP
notes: pGEX4T-2, codon optimised; The methods call 226-314 the MID; also called GST-Mint1 (222-314); source: E. coli Rosetta BL21 (DE3), purified (glutathione-Sepharose, gel filtration)
Regarding B11, in the test with Munc18-1-His [3], the binding result was “binds”.

B12: Mint1 (261-282) synthetic peptide (peptide)
peptide: MDSYEQEEDIDQIVAEVKQSMS
notes: also called Mint1_1; Mint1 AHM peptide; source: synthetic peptide, bought: Genscript
Turning to B12, the dH was -8.9 kcal/mol with Munc18-1 + Sx1a [6], -8.8 kcal/mol with Munc18-1-His [1] and -7.9 kcal/mol in the test with Munc18-1-His [7]. Also, the “stoichiometry N” value was 1 with Munc18-1 + Sx1a [6], 0.8 with Munc18-1-His [1] and 1 with Munc18-1-His [7].
